{
  "source": "patent US20190211359A1",
  "about": "(INSTITUTE FOR CANCER RESEARCH D B A THE RESEARCH INSTITUTE …, published 2019)",
  "key": {"[1]": {"target": "T1, receptor-interacting serine/threonine-protein kinase 3 (RIPK3), murine (mouse, UniProt Q9QZL0 1-486)", "T1 construct": "Endogenous protein of MEFs, pulled down with anti-RIPK3 antibody; also called RIP3", "T1 sequence (Q9QZL0 whole entry)": "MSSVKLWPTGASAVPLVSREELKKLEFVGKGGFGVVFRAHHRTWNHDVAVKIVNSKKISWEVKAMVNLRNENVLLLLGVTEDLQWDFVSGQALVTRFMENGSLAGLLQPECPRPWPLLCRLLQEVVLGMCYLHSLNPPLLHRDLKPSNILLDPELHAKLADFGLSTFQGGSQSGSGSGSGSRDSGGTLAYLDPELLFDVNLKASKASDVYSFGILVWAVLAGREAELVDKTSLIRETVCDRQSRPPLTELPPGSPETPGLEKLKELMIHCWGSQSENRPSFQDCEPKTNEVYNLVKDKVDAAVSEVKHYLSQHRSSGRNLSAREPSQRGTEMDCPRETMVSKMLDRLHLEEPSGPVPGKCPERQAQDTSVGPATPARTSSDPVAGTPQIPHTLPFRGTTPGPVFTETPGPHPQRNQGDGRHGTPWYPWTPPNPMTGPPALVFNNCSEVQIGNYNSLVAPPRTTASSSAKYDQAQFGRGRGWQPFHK", "assay": "RIPK3 immunoprecipitated from PR8-infected wild-type MEFs, immunoblot for DAI (FIG. 13A); also seen with re-expressed wild type DAI (FIG. 13D)", "experimental": "FIGS. 13A through 13F show DAI is required for IAV induced formation of RIPK3-containing necrosome complex. […] In parallel, wild-type (WT), zbp1^{-/-}, and ripk3^{-/-} MEFs were treated with […] and phosphorylated MLKL. […] In parallel, reconstituted cells were treated with TCZ and examined for expression of phosphorylated p MLKL. […] Whole-cell extract (5% input) was examined in parallel for RIPK3, DAI and IAV NS1 proteins."}, "[2]": {"target": "T1, receptor-interacting …", "assay": "anti-RIPK3 immunoprecipitation from PR8-infected reconstituted zbp1-/- MEFs, immunoblot (FIG. 13D)"}},
  "data": [
    {"binder": "DNA-dependent activator of interferon-regulatory factors (DAI), wild-type full-length murine (other, mouse, UniProt Q9QY24 1-411, looked up, also called ZBP1; DLM-1) MAEAPVDLSTGDNLEQKILQVLSDDGGPVKIGQLVKKCQVPKKTLNQVLYRLKKEDRVSSPEPATWSIGGAASGDGAPAIPENSSAQPSLDERILRFLEANGPHRALHIAKALGMTTAKEVNPLLYSMRNKHLLSYDGQTWKIYHSRQEGQDIAHSGVTQESPAIICQHNPVNMICQQGANSHISIANSNAIQIGHGNVIVREKACGEPGPRTSHPLPLAWDASAQDMPPVAHGAQYIYMDKSLLQQVQLGHHNEMSLVGDAGKHPSYSFSDSPPEVSTTTADPGASFNMQTFEPGPHPEGDTVQTVHIKSCFLEDATIGNGNKMTIHLRSKGEVMESGDSEEPKKEDTGTSSEATPPRSCQHTPSDSMLPTSELRAMALGDSSPQTTEPVLREHEVQDIESSQDTGLSKQ", "values": [
      {"measurement": "binding result", "setting": "[1]", "result": "binds"}
    ]},
    {"binder": "murine DAI with mutant RHIM domain (amino acids 192-195 IQIG to AAAA) (other, mouse, UniProt Q9QY24 1-411, looked up, also called DAI mutRHIM) MAEAPVDLSTGDNLEQKILQVLSDDGGPVKIGQLVKKCQVPKKTLNQVLYRLKKEDRVSSPEPATWSIGGAASGDGAPAIPENSSAQPSLDERILRFLEANGPHRALHIAKALGMTTAKEVNPLLYSMRNKHLLSYDGQTWKIYHSRQEGQDIAHSGVTQESPAIICQHNPVNMICQQGANSHISIANSNAAAAAHGNVIVREKACGEPGPRTSHPLPLAWDASAQDMPPVAHGAQYIYMDKSLLQQVQLGHHNEMSLVGDAGKHPSYSFSDSPPEVSTTTADPGASFNMQTFEPGPHPEGDTVQTVHIKSCFLEDATIGNGNKMTIHLRSKGEVMESGDSEEPKKEDTGTSSEATPPRSCQHTPSDSMLPTSELRAMALGDSSPQTTEPVLREHEVQDIESSQDTGLSKQ", "values": [
      {"measurement": "binding result", "setting": "[2]", "result": "no binding"}
    ]}
  ]
}
